In US20030232052A1 (CALIFORNIA INSTITUTE OF TECHNOLOGY, published 2003):
Read-outs that look alike come from different tables or passages of the source.

Columns and labels:
[1] = biological target: mutant Htt exon 1 with 103 polyQ repeats fused to EGFP (UniProt P42858); assay: cell-based or functional assay
[2] = biological target: mutant Htt exon 1 with 103 polyQ repeats fused to EGFP (UniProt P42858); assay: cell-based or functional assay; remark: listed apart in the source
[3] = biological target: T1, mutant Htt exon 1 with 103 polyQ repeats fused to EGFP (UniProt P42858 1-88; P42212 1-238 = GFP); assay: coimmunoprecipitation from 293 cell lysates with anti-Flag Ab, blot with anti-HD1-17
T1 construct: Expressed in 293 cells; Order of pieces follows 'Htt exon 1-EGFP'; also called PQ103
Protocol: The scFvs and IκBα in Triton X-100 cell extracts were precipitated with anti-Flag Ab, and the precipitates were subjected to SDS-PAGE.
Briefly, cells were harvested 24 hours after transfection and lysed by sonication in buffer A (25 mM Hepes, pH 7.4/2.5 mM MgCl₂/50 mM NaCl/1 mM EDTA/1% Triton X-100). After clearing the lysates by centrifugation at 14,300 rpm (Eppendorf microcentrifuge) for 10 minutes at 4° C., 200 μg of each lysate was incubated at 4° C. with rocking for 2 hours with a 40-μl slurry of anti-Flag Ab coupled to protein A beads. The beads were then washed five times in buffer A by using centrifugation at 5,000 rpm, and the complexes were resolved on SDS-PAGE. […] Secondary antibodies conjugated to horseradish peroxidase (HRP) were used to detect the reactive protein bands by enhanced chemiluminescence (Santa Cruz Biotechnology).

What does the source list for “Flag-tagged MW2 scFv expressed in 293 cells”?
SDS-insoluble aggregated Htt, scanned band at the top of the gel (no scFv: 48.8) (arbitrary units) [1]: 54.3; increase in mutant Htt-induced TUNEL staining (TUNEL+ cells), 293 cells [1]: 67%

B1: Flag-tagged MW7 scFv expressed in 293 cells (scFv)
scFv: MDYKDDDDKVAQVKLQESGGGLVQPGGSMKLSCAASGFTFSDAWMDWVRQSPEKGLSGVAEIRSKANNHATYYAESVKGRFTISRDDSKSSVYLQMNSLRAEDTGIYYCIYAGFAYWGQGTTVTVSSGGGGSGGGGSGGGGSDIELTQSPSSLAMSVGQKVTMSCKSSQSLLNSSNQKNYLAWYQQKPGQSPKLLVYFASTRESGVPDRFIGSGSGTDFTLTISSVQAEDLADYFCQQHYSTPWTFGGGTKLEIK
Which SDS-insoluble aggregated Htt, scanned band at the top of the gel (no scFv: 48.8) (arbitrary units) [2] does the source give for B1 here?
The SDS-insoluble aggregated Htt, scanned band at the top of the gel (no scFv: 48.8) (arbitrary units) was 0.2.

B2: Flag-tagged IκBα (other, UniProt P25963 1-317, looked up, not shown: small tags and cut ends)
chain: MFQAAERPQEWAMEGPRDGLKKERLLDDRHDSGLDSMKDEEYEQMVKELQEIRLEPQEVPRGSEPWKQQLTEDGDSFLHLAIIHEEKALTMEVIRQVKGDLAFLNFQNNLQQTPLHLAVITNQPEIAEALLGAGCDPELRDFRGNTPLHLACEQGCLASVGVLTQSCTTPHLHSILKATNYNGHTCLHLASIHGYLGIVELLVSLGADVNAQEPCNGRTALHLAVDLQNPDLVSLLLKCGADVNRVTYQGYSPYQLTWGRPSTRIQQQLGQLTLENLQMLPESEDEESYDTESEFTEFTEDELPYDDCVFGGQRLTL
notes: Order of pieces follows the name Flag-IκBα; also called Flag-IκBα
Does B2 bind [3]?
Result: no binding
